Assay [1] concerns the target LC3A (UniProt Q9H492 1-121). Description: FP.
The target in assay [2] is GABARAP (UniProt O95166 2-116). Description: FP.

Where no end group is shown, it is not given here. Where only a bound is given, the exact number is not on record here.

Chain of GABARAP (O95166 2-116): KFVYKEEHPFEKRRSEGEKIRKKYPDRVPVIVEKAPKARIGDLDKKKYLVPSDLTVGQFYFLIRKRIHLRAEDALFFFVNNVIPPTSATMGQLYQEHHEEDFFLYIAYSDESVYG

As to LEAIIEEDDGDGGWVDTYHCGGGK (also: fluorescein, position not given here, cyclized, places not given here) [fluorescein-modified cyclized LIR^ATG3 peptide], the figures for the Kd in assay [1] and in assay [2] were 410 nM and 150 nM, respectively.

LEAIIEEDDGDGGWVDTYH (also: fluorescein, position not given here) [fluorescein-modified linear LIR^ATG3 peptide]: the Kd (commonly the concentration at which binding is half-saturated) in assay [1] is 2600 nM; in assay [2] it was 1200 nM.

In the case of GDGGWVDTY (also: fluorescein, position not given here) [fluorescein-modified truncated (103–111) LIR^ATG3 peptide], the Kd was > 15000 nM in assay [1] and > 10000 nM in assay [2].
